Test results from patent US20100092974A1, “METHODS FOR SCREENING FOR MODULATORS OF CCRL2” (The Board of Trustees of the Leland Stanford Junior …, priority 2008, published 2010).

Columns and labels:
[1] = test system: mouse peritoneal mast cells; assay: intracellular calcium mobilization, freshly isolated peritoneal mast cells; format: cell-based; conditions: 1000 nM chemerin, 100 nM ATP
Method: (§1) Chemoattractant-stimulated Ca^2+-mobilization was performed following Alliance for Cell Signaling protocol ID PP00000210. Cells (3×10^6/mL) were loaded with 4 μM Fluo4-AM and 0.16% Pluronic acid F-127 (Molecular Probes) in modified Iscove's medium (Iscove's medium with 1% heat inactivated bovine calf serum and 2 mM L-glutamine, Invitrogen) for 30 minutes at 37° C. The samples were mixed every 10 minutes during loading, washed once, resuspended at up to 2×10^6/mL in the same buffer, and allowed to rest in the dark for 30 minutes at room temperature. Chemoattractant-stimulated change in Ca^2+-sensitive fluorescence of Fluo-4 was measured over real-time with a FACsScan flow cytometer and CellQuest software (BD Biosciences) at room temperature under constant stirring (500 rpm). Fluorescent data were acquired continuously up to 1024 seconds at 1-second intervals. The samples were analyzed for 45 seconds to establish basal state, removed from the nozzle to add the stimuli, and then returned to the nozzle. Mean channel fluorescence over time was analyzed with FlowJo (TreeStar, Ashland, Oreg., USA) software. […] 500 μl of these chemerin-loaded cells were added to mCMKLR1/L1.2 cells loaded with Fluo4-AM, and calcium mobilization was evaluated.

mCCRL2 [2] = molecular target: T1, mCCRL2 (Mus musculus, UniProt O35457); assay: in vitro transwell chemotaxis, mCCRL2/L1.2 transfectants; format: cell-based; conditions: range of doses; CXCL12 and CCL19 act via endogenous CXCR4 and CCR7
T1 construct: The coding regions of mCCRL2, huCCRL2, mCRTH2, and huCCR10 were amplified from genomic DNA; expressed in transfected cells
T1 sequence (O35457 1-360): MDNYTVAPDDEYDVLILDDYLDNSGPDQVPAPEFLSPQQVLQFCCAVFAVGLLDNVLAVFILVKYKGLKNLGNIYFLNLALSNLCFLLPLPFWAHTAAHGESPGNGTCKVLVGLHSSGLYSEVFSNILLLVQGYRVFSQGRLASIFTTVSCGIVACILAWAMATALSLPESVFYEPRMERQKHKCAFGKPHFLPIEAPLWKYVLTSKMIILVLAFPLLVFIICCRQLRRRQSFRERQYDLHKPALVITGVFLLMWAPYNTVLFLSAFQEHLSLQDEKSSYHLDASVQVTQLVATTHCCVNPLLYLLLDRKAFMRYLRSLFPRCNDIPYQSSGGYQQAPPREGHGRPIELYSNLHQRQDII
Method: (§2) For migration experiments using cell lines, 2.5×10^5 cells/100 μl chemotaxis media (RPMI+10% fetal calf serum) were added to the top wells of 5-um pore transwell inserts (Costar, Corning, N.Y., USA), and test samples in 600 μl media were added to the bottom wells. After incubating the transwell plates for 1.5 hours at 37° C., the bottom wells were harvested and flow cytometry was used to assess migration. For primary cell chemotaxis, 1×10^6 cells/100 μl were added to the top well, and, following a 2 hour incubation at 37° C., polystyrene beads (15.0 μm diameter, Polysciences, Warrington, Pa., USA) were added to each well to facilitate normalization of the cell count. The cells were then stained for c-kit, F4/80, and/or CD11b expression and analyzed by flow cytometry. A ratio was generated and percent input migration was calculated.

huCCRL2 = molecular target: T2, huCCRL2 (Homo sapiens, UniProt O00421); assay: in vitro transwell chemotaxis, huCCRL2-HA/L1.2 transfectants; format: cell-based; conditions: range of doses; CXCL12 and CCL19 act via endogenous CXCR4 and CCR7
T2 construct: The coding regions of mCCRL2, huCCRL2, mCRTH2, and huCCR10 were amplified from genomic DNA; expressed in transfected cells
T2 sequence (O00421 1-344): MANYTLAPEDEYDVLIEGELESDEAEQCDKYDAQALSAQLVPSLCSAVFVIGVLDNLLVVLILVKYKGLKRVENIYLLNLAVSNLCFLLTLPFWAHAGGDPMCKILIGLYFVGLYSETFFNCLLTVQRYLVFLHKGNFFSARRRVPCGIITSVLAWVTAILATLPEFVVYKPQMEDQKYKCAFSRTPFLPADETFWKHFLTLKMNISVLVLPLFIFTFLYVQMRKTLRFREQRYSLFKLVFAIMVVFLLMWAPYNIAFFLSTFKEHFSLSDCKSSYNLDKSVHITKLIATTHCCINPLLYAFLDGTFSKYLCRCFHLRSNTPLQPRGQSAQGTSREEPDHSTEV
Method: as §2

mCCRL2 [3] = molecular target: T1, mCCRL2; assay: intracellular calcium mobilization, mCCRL2/L1.2 transfectants; format: cell-based; conditions: Fluo-4; CXCL12 acts via endogenous CXCR4
Method: as §1

peritoneal macrophages = assay: mCCRL2 expression on peritoneal macrophages cultured 24 h with stimuli; conditions: 24 h culture with stimulus
[4] = test system: mouse peritoneal mast cells; assay: in vitro transwell chemotaxis, peritoneal mast cells; format: cell-based; conditions: SSChigh CD11b- c-kit+ cells
Method: as §2

bEND3 cells = assay: CCRL2 expression in TNFα-treated bEND3 endothelioma cells; format: cell-based, mouse; conditions: 24-hour treatment, 20 ng/ml
Source text: FIG. 22. […] Panel A. Robust upregulation of CCRL2 RNA by microarray analysis (Affymetrix®). Panel B. TNFα-treated bEND3 cells acquire CCRL2 surface protein (but not CMKLR1 expression) as determined by mAb staining and flow cytometry. Panel C. […] CCRL2/L1.2 and empty vector pcDNA3/L1.2 transfectants are shown as controls. The mean+/−SD of triplicate wells is shown for an individual experiment. A representative data set of 2 performed with similar results is shown for parts B and C, and n=1 for part A.
2005. J Exp Med 201: 509-515). […] We observed the same TNFα-mediated induction of protein expression by mAb staining […].

[5] = molecular target: T3, mouse CCRL2 (chemokine (CC motif) receptor-like 2), untagged (mouse, UniProt O35457 1-360); assay: flow cytometry on WT peritoneal mast cells; competitor displaced: 10 nM His8-tagged serum form chemerin, anti-His6 PE [panel E]
T3 construct: whole, on cells; also called mCCRL2; mCCRL2/L1.2
T3 sequence (looked up): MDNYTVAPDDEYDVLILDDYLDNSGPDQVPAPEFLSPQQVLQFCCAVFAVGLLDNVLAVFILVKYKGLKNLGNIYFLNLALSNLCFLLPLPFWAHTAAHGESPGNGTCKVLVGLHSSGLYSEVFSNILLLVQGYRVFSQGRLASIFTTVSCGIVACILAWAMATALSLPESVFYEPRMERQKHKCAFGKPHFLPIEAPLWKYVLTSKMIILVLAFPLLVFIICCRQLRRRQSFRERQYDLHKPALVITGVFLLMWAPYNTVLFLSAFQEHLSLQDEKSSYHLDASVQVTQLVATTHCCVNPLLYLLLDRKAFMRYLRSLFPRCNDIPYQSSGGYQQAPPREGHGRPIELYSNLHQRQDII

[6] = molecular target: T4, mouse CCRL2 with an engineered N-terminal hemagglutinin (HA) tag (mouse, UniProt O35457 1-360); assay: flow cytometry; untagged chemerin competes with 10 nM His8-tagged serum form human chemerin, detected with anti-His6 PE
T4 construct: whole, on cells; also called mCCRL2-HA; mCCRL2-HA/L1.2; not shown: engineered N-terminal HA tag
T4 sequence (looked up): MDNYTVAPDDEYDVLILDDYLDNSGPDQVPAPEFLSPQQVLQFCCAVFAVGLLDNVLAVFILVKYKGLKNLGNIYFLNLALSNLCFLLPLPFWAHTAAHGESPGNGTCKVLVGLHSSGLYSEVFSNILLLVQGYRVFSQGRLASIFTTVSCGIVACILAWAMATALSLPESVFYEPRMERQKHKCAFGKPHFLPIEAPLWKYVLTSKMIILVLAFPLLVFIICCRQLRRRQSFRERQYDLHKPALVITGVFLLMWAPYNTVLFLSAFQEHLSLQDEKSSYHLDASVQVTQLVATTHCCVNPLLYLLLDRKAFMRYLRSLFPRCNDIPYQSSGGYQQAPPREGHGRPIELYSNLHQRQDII

[7] = molecular target: T5, human CCRL2 with an engineered N-terminal hemagglutinin (HA) tag (human, UniProt O00421 1-344); assay: as above
T5 construct: whole, on cells; also called huCCRL2-HA; not shown: engineered N-terminal HA tag
T5 sequence (looked up): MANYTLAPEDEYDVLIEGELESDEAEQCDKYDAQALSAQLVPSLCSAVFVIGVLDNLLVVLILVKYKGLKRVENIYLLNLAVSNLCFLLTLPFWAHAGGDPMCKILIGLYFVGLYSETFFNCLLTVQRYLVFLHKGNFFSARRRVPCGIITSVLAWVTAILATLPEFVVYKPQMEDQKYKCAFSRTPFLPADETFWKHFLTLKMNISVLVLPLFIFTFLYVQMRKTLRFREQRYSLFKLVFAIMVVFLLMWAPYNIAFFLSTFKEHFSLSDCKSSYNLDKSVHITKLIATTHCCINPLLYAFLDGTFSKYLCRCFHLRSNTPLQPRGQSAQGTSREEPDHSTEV

[8] = molecular target: T3, mouse CCRL2 (chemokine (CC motif) …); assay: flow cytometry on peritoneal mast cells (F4/80-, c-kit+ gate) of WT and CCRL2 KO mice, 10 nM His8-tagged isoform, anti-His6 PE [panel E]
[9] = molecular target: mouse CCRL2 (chemokine (CC motif) receptor-like 2), untagged (mouse) (UniProt O35457); assay: saturation binding of 125I-chemerin 21-148 to mCCRL2/L1.2 cells, one-site fit; saturation binding, single site

Molecule: Nc1ncnc2c1ncn2[C@@H]1O[C@H](COP(=O)(O)OP(=O)(O)OP(=O)(O)O)[C@@H](O)[C@H]1O [ATP, reference compound]
- intracellular calcium mobilization [1]: responded

Molecule: CCL5: chemokine purchased from R&D Systems
- transwell migration (mCCRL2 [2]): did not induce migration

Molecule: CCL7: chemokine purchased from R&D Systems
- transwell migration (mCCRL2 [2]): did not induce migration

Molecule: CCL11: known chemoattractant
- transwell migration (mCCRL2 [2]): none stimulated

Molecule: CCL19: chemokine, positive control via CCR7
- transwell migration (mCCRL2 [2]): migrated
- transwell migration (huCCRL2): migrated

Molecule: CCL28: known chemoattractant
- transwell migration (mCCRL2 [2]): none stimulated

Molecule: CXCL9: known chemoattractant
- transwell migration (mCCRL2 [2]): none stimulated

Molecule: CXCL12: chemokine, positive control via CXCR4
- transwell migration (mCCRL2 [2]): migrated
- intracellular calcium mobilization (mCCRL2 [3]): responded
- transwell migration (huCCRL2): migrated

Molecule: CXCL13: known chemoattractant
- transwell migration (mCCRL2 [2]): none stimulated

Molecule: IFNγ: cytokine purchased from Roche
- mCCRL2 protein expression on peritoneal macrophages (peritoneal macrophages): upregulated

Molecule: SCF: stem cell factor, positive control for mast cell chemotaxis [reference compound]
- transwell migration [4]: migrated

Molecule: TNFα
- CCRL2 mRNA (bEND3 cells): highly upregulated
- CCRL2 protein expression by mAb staining (bEND3 cells): induction
- mCCRL2 protein expression on peritoneal macrophages (peritoneal macrophages): upregulated

Molecule: poly:IC
- mCCRL2 protein expression on peritoneal macrophages (peritoneal macrophages): upregulated

B1: CCL22: known chemoattractant (protein, UniProt O00626 25-93, looked up)
C-C motif chemokine 22: GPYGANMEDSVCCRDYVRYRLPLRVVKHFYWTSDSCPRPGVVLLTFRDKEICADPRVPWVKMILNKLSQ
- transwell migration (mCCRL2 [2]): none stimulated

B2: pro-form (1000 nM untagged chemerin isoform) (ligand)
chain: ADPELTEAQRRGLQVALEEFHKHPPVQWAFQETSVESAVDTPFPAGIFVRLEFKLQQTSCRKRDWKKPECKVRPNGRKRKCLACIKLGSEDKVLGRLVHCPIETQVLREAEEHQETQCLRVQRAGEDPHSFYFPGQFAFSKALPRSPH
notes: also called untagged pro-form human chemerin, His8 tag removed by carboxypeptidase A
- binding result [5]: binds

B3: untagged "serum form" human chemerin (His8 tag removed by carboxypeptidase A) (ligand)
chain: ADPELTEAQRRGLQVALEEFHKHPPVQWAFQETSVESAVDTPFPAGIFVRLEFKLQQTSCRKRDWKKPECKVRPNGRKRKCLACIKLGSEDKVLGRLVHCPIETQVLREAEEHQETQCLRVQRAGEDPHSFYFPGQFAPH
notes: The assays print 'untagged serum form chemerin' or 'serum form chemerin' without the species; Printed with an ellipsis; also called untagged serum form chemerin; untagged chemerin
- EC50 [6]: 45 nM
- EC50 [7]: 7 nM

B4: CCL27: known chemoattractant (protein, UniProt Q9Y4X3 25-112, looked up)
C-C motif chemokine 27: FLLPPSTACCTQLYRKPLSDKLLRKVIQVELQEADGDCHLQAFVLHLAQRSICIHPQNPSLSQWFEHQERKLHGTLPKLNFGMLRKMG
- transwell migration (mCCRL2 [2]): none stimulated

B5: carboxyl-terminal His8-tagged "pro-form" human chemerin (ligand)
chain: ADPELTEAQRRGLQVALEEFHKHPPVQWAFQETSVESAVDTPFPAGIFVRLEFKLQQTSCRKRDWKKPECKVRPNGRKRKCLACIKLGSEDKVLGRLVHCPIETQVLREAEEHQETQCLRVQRAGEDPHSFYFPGQFAFSKALPRSPHHHHHHHH
notes: Printed with an ellipsis, and with six H although called His8-tagged; also called His8-tagged chemerin isoform
- binding result [8]: binds

B6: radioiodinated human chemerin (residues 21-148) (ligand, UniProt Q99969 21-148, looked up)
chain: ELTEAQRRGLQVALEEFHKHPPVQWAFQETSVESAVDTPFPAGIFVRLEFKLQQTSCRKRDWKKPECKVRPNGRKRKCLACIKLGSEDKVLGRLVHCPIETQVLREAEEHQETQCLRVQRAGEDPHSF
modifications: 125I-labelled (radioiodinated), specific activity 97 Ci/g
- Kd [9]: 1.6 nM

B7: CCL8: chemokine purchased from R&D Systems (protein, UniProt P80075 24-99, looked up)
C-C motif chemokine 8: QPDSVSIPITCCFNVINRKIPIQRLESYTRITNIQCPKEAVIFKTKRGKEVCADPKERWVRDSMKHLDQIFQNLKP
- transwell migration (mCCRL2 [2]): did not induce migration

B8: CCL17: known chemoattractant (protein, UniProt Q92583 24-94, looked up)
C-C motif chemokine 17: ARGTNVGRECCLEYFKGAIPLRKLKTWYQTSEDCSRDAIVFVTVQGRAICSDPNNKRVKNAVKYLQSLERS
- transwell migration (mCCRL2 [2]): none stimulated

B9: CCL25: known chemoattractant (protein, UniProt O15444 24-150, looked up)
C-C motif chemokine 25: QGVFEDCCLAYHYPIGWAVLRRAWTYRIQEVSGSCNLPAAIFYLPKRHRKVCGNPKSREVQRAMKLLDARNKVFAKLHHNTQTFQAGPHAVKKLSSGNSKLSSSKFSNPISSSKRNVSLLISANSGL
- transwell migration (mCCRL2 [2]): none stimulated
